According to US6905817B1, “Ret-independent signaling pathway for GDNF” (Licestia Ltd., priority 1998, dated 2005):
“Also recorded” adds a separate entry of the source.

Experiments:
CREB = CREB Ser-133 phosphorylation assay in SHEP cells; assay type: cell-based, human; details: GDNF treatment
Procedure: (§1) To assess GDNF-dependent MAPK and CREB phosphorylation in all studied cell lines, the semiconfluent cell monolayers were starved for 3 hours in serum-free medium, and then GDNF was applied for the indicated time. For the analysis of MAPK and CREB activation in Ret^−/− animals the DRG neurons were dissected from E18 mice and maintained in NGF-containing medium for 2 hours. After this time the neurons were deprived of NGF by placing them in NGF-free medium in the presence of anti-NGF antibodies. After 2 hr without NGF, the neurons were stimulated with GDNF. In the experiments involving Src-kinase inhibition, a Src-family kinase inhibitor PP2 was added at the indicated concentrations to the cell monolayers 5 min before GDNF application. In some experiments 1 μg/ml of soluble GFRα1 lacking a GPI anchor (GFRα1/Fc chimeric protein; R&D systems) was added 5 min prior to the GDNF application and was kept in the solution during the GDNF treatment, After stimulation, the cells were briefly washed with PBS/sodium vanadate and lysed in the buffer containing TBS, 2 mM EDTA, 1% NP-40, 1% Triton X-100, 1 mM PMSF, 1 mM Na3VO4 and a Complete, protease inhibitors cocktail (Boehringer Mannheim). Total cell protein for each extract was measured by MicroBSA (Pierce) and an equivalent amount of protein was resolved electrophoretically on 10% polyacrylamide gels. […]

p42/p44 MAPK = test: MAPK phosphorylation assay in SHEP neuroblastoma cells; assay type: cell-based, human; details: GDNF 100 ng/ml
Procedure: as §1

[1] = tested on: CREB-related protein ATF-1; test: ATF-1 phosphorylation in SHEP cells; assay type: cell-based, human; details: GDNF treatment
Procedure: as §1

p42/p44 MAP kinases = test: MAPK phosphorylation assay in Ret^−/− DRG neurons; assay type: cell-based, mouse; details: GDNF 100 ng/ml
Procedure: as §1

PLCγ = PLCγ tyrosine phosphorylation (immunoprecipitation and Western blotting) in SHEP cells; assay type: cell-based, human
Procedure: To determine changes in GDNF-evoked PLCγ tyrosine phosphorylation the Western blotting assays were performed as described in Khare et al. (1997). Briefly, SHEP neuroblastoma cells were pre-incubated with 1 mM sodium vanadate in serum-free medium for 30 min. at 37 ° C. and then were treated at 37 ° C. with 1-100 ng/ml GDNF for 1 min. unless otherwise indicated. Incubation was stopped by the addition of ice-cold PBS buffer containing 1 mM sodium vanadate. Whole cell lysates (final protein concentration 0.1-0.3 mg/ml) were prepared at 4° C. in an extraction buffer (pH 7.5) containing 50 mM Tris-HCl, 137 mM NaCl, 1 mM sodium vanadate, 1 mM PMSF, 10% glycerol, 1% NP-40 and protease inhibitors cocktail (Boehringer). Phosphotyrosine-containing proteins were immunoprecipitated with 4G-10 antibodies (Upstate Biotechnology), collected with Protein A Sepharose beads and separated on the 7.5% SDS-PAGE. The proteins were transferred to Hybond-ECL nitrocellulose membrane, and PLCγ was assessed by Western blotting using anti-PLCγ antibodies (Upstate Biotechnology). In some experiments we first immunoprecipitated PLCγ from the cell lysate using anti-PLCγ antibodies and probed the filter with anti-phosphotyrosine 4G-10 antibodies as described above. […]

JNK = JNK phosphorylation assay in SHEP cells; assay type: cell-based, human; details: GDNF 100 ng/ml
Procedure: as §1

Ret^−/− DRG neurons = test: GDNF-evoked [Ca^2+]i changes, confocal microscopy, Ret^−/− DRG neurons; assay type: cell-based, mouse
Procedure: DRG from embryonic day 18 (E18) mice were treated with trypsin (Worthington), non-neuronal cells removed by preplating, and about 95% pure neurons cultured on poly-ornithine-laminin-coated glass coverslips in Ham's F14 medium (Imperial Laboratories) with serum substitute containing NGF, BDNF and NT-3 (all from PeproTech, 2 ng/ml if each) for at least 1 day before measurement. Neurotrophins were extensively washed out before GDNF application. GDNF was from PeproTech and donated by Cephalon, Inc. Ret-deficient mice (Schuchardt et al., 1994) were identified from heterozygote matings by the absence of kidneys and PCR-based genotyping. GFRα2-deficient mice were obtained from homozygote matings (Rossi et al., 1999).
[Ca^2+]i was measured using a Bio-Rad MRC-1024 confocal microscope equipped with an argon-krypton laser. The cells were loaded with 10 μM Calcium Green-1AM (Molecular Probes), a membrane permeable Ca^2+ dye, by 30 min incubation in serum free cell-culture media at 37 ° C. and 5 % CO2. After loading, the neurons were kept at room temperature in Dulbecco's PBS solution contained 20 mM HEPES (pH=7.4) for at least 20 min prior to the experiments. All compounds were applied to the bath by a peristaltic pump. 6 kD Heparin (Sigma) and Alexa 568 nm fluorescent dye (Molecular Probes) were loaded into the cells using Molecular Probes' pinocytotic influx loading reagent basically according to the manufacturer instructions. […] Cell injection was performed using Eppendorf microinjection system. The average intensity of fluorescence in the predefined ROI (Region Of Interest) was measured on-line using TimeCourse software from BioRad. The calibration of fluorescence traces was performed in vitro using Fmax and Fmin values obtained with the calcium calibration buffer kit (Molecular Probes). Because the calibration solutions may not reflect the intracellular environment, the experimental data are presented as delta [Ca^2+]i calculated using Kd=190 nM for Calcium Green-1.

B1: Glial cell line—derived neurotrophic factor (protein, UniProt P39905 78-211, looked up)
Glial cell line-derived …: SPDKQMAVLPRRERNRQAAAANPENSRGKGRRGQRGKNRGCVLTAIHLNVTDLGLGYETKEELIFRYCSGSCDAAETTYDKILKNLSRNRRLVSDKVGQACCRPIAFDDDLSFLDDNLVYHILRKHSAKRCGCI
notes: TGF-β family-related neurotrophic protein; from PeproTech and donated by Cephalon, Inc
CREB
  phosphorylation of CREB in Ser-133 site: potently induced phosphorylation of CREB
p42/p44 MAPK
  p42/p44 MAPK phosphorylation: transient and profound increase of p42/p44 MAPK phosphorylation
[1]
  phosphorylation / activation of ATF-1: induced phosphorylation of the CREB-related protein ATF-1; also recorded: robust GDNF-dependent activation of the CREB-related protein ATF-1
p42/p44 MAP kinases
  activation (phosphorylation) of MAPK: several-fold rapid activation of MAPK
PLCγ; GDNF
  time to return to basal tyrosine phosphorylation levels of PLCγ: ≤ 5 min
PLCγ; GDNF 1-100 ng/ml, 1 min
  PLCγ tyrosine phosphorylation: significantly increased PLCγ tyrosine phosphorylation; also recorded: dose-dependent increase in PLCγ tyrosine phosphorylation
JNK
  JNK activation (phosphorylation): did not evoke JNK activation; also recorded: did not affect the phosphorylation of JNK
Ret^−/− DRG neurons; 10-100 ng/ml GDNF
  Ret^−/− DRG neurons with long-lasting [Ca^2+]i elevation: 60-70%
  change in [Ca^2+]i: long-lasting [Ca^2+]i elevation
Ret^−/− DRG neurons; GDNF
  fast [Ca^2+]i rise: never observed a GDNF-dependent fast [Ca^2+]i rise
Ret^−/− DRG neurons; GDNF 100 ng/ml in nominally Ca^2+ free external solution (about 20 μM)
  change in [Ca^2+]i (calcium entry): evoked a massive [Ca^2+]i overshoot and substantially slower decay kinetics; also recorded: resulted in a profound increase in [Ca^2+]i
